These results are taken from publication PMC6476931, “The Complex Fibrinogen Interactions of the Staphylococcus aureus Coagulases” (Frontiers in Cellular and Infection Microbiology, 2019).

Conditions in all cases: both partners purified
For experiment [1], the target named is T1, GST-vWbp (full-length von Willebrand factor binding protein) (S. aureus strain Newman).
T1 construct: Cloned in pGEX-5x-1; also called full-length vWbp; source: E. coli BL21 (DE3)-derivative Acella, purified (glutathione-Sepharose 4B, gel permeation); not shown: GST, N-terminal, kept
The experiment is described as follows: ELISA; GST-vWbp or GST-Coa coated on wells (5 μg/ml, 0.5 μg/well); soluble Fg in 1% BSA, 0.05% Tween 20, TBS; detected with HRP anti-human Fg; one-site fit, apparent KD, mean of three experiments. (In general: In an ELISA, binding on a coated surface is turned into a signal by an enzyme label.)

Experiment [2] has as its target T2, GST-Coa (full-length Coagulase) (S. aureus strain Newman).
T2 construct: Coagulase (Coa), S. aureus strain Newman, coa gene amplified from chromosomal DNA; cloning described in Ko et al., 2016; the recombinant protein probably lacks it; also called intact Coa; source: E. coli BL21 (DE3)-derivative Acella, purified (glutathione-Sepharose 4B, gel permeation); not shown: GST, N-terminal, kept
Described as above.

The target in experiment [3] is T1, GST-vWbp (full-length von Willebrand …). In words: ELISA; Fg coated on wells (5 μg/ml, 0.5 μg/well); GST-vWbp or GST-Coa proteins in 1% BSA, 0.05% Tween 20, TBS, 1 h at room temperature; detected with HRP anti-GST; one-site fit, apparent KD, mean of three experiments.
Experiment [4] addresses T2, GST-Coa (full-length Coagulase). The experiment is described as above.
The target of another experiment is Human fibrinogen (human, UniProt P02671 36-866; P02675 45-491; P02679 27-453). The experiment is described as above.
Chain of Human fibrinogen (P02671 36-866, one chain of several): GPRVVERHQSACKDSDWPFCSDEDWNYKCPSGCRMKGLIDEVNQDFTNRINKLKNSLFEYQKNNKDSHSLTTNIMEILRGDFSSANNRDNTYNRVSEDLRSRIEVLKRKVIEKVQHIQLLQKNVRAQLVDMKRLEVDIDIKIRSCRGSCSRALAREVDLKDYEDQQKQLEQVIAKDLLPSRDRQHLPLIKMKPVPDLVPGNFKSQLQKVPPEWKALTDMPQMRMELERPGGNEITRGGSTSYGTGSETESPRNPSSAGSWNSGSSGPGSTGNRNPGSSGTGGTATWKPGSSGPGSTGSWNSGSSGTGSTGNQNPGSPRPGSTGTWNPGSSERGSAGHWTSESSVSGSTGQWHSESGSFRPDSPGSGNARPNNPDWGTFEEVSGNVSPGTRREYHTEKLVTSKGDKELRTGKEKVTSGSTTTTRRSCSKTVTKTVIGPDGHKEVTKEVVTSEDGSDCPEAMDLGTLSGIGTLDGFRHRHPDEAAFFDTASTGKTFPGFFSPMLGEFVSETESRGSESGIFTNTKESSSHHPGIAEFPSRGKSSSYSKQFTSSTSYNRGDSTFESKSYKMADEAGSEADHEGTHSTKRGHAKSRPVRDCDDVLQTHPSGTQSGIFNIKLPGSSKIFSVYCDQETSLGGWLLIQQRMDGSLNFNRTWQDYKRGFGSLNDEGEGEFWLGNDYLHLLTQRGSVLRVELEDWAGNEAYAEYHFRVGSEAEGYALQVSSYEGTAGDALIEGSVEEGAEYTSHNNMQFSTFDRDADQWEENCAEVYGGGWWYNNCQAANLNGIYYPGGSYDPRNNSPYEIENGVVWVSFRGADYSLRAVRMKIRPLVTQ

B1: Human fibrinogen (complex)
chain 1: ADSGEGDFLAEGGGVRGPRVVERHQSACKDSDWPFCSDEDWNYKCPSGCRMKGLIDEVNQDFTNRINKLKNSLFEYQKNNKDSHSLTTNIMEILRGDFSSANNRDNTYNRVSEDLRSRIEVLKRKVIEKVQHIQLLQKNVRAQLVDMKRLEVDIDIKIRSCRGSCSRALAREVDLKDYEDQQKQLEQVIAKDLLPSRDRQHLPLIKMKPVPDLVPGNFKSQLQKVPPEWKALTDMPQMRMELERPGGNEITRGGSTSYGTGSETESPRNPSSAGSWNSGSSGPGSTGNRNPGSSGTGGTATWKPGSSGPGSTGSWNSGSSGTGSTGNQNPGSPRPGSTGTWNPGSSERGSAGHWTSESSVSGSTGQWHSESGSFRPDSPGSGNARPNNPDWGTFEEVSGNVSPGTRREYHTEKLVTSKGDKELRTGKEKVTSGSTTTTRRSCSKTVTKTVIGPDGHKEVTKEVVTSEDGSDCPEAMDLGTLSGIGTLDGFRHRHPDEAAFFDTASTGKTFPGFFSPMLGEFVSETESRGSESGIFTNTKESSSHHPGIAEFPSRGKSSSYSKQFTSSTSYNRGDSTFESKSYKMADEAGSEADHEGTHSTKRGHAKSRPV
chain 2: QGVNDNEEGFFSARGHRPLDKKREEAPSLRPAPPPISGGGYRARPAKAAATQKKVERKAPDAGGCLHADPDLGVLCPTGCQLQEALLQQERPIRNSVDELNNNVEAVSQTSSSSFQYMYLLKDLWQKRQKQVKDNENVVNEYSSELEKHQLYIDETVNSNIPTNLRVLRSILENLRSKIQKLESDVSAQMEYCRTPCTVSCNIPVVSGKECEEIIRKGGETSEMYLIQPDSSVKPYRVYCDMNTENGGWTVIQNRQDGSVDFGRKWDPYKQGFGNVATNTDGKNYCGLPGEYWLGNDKISQLTRMGPTELLIEMEDWKGDKVKAHYGGFTVQNEANKYQISVNKYRGTAGNALMDGASQLMGENRTMTIHNGMFFSTYDRDNDGWLTSDPRKQCSKEDGGGWWYNRCHAANPNGRYYWGGQYTWDMAKHGTDDGVVWMNWKGSWYSMRKMSMKIRPFFPQQ
chain 3: YVATRDNCCILDERFGSYCPTTCGIADFLSTYQTKVDKDLQSLEDILHQVENKTSEVKQLIKAIQLTYNPDESSKPNMIDAATLKSRKMLEEIMKYEASILTHDSSIRYLQEIYNSNNQKIVNLKEKVAQLEAQCQEPCKDTVQIHDITGKDCQDIANKGAKQSGLYFIKPLKANQQFLVYCEIDGSGNGWTVFQKRLDGSVDFKKNWIQYKEGFGHLSPTGTTEFWLGNEKIHLISTQSAIPYALRVELEDWNGRTSTADYAMFKVGPEADKYRLTYAYFAGGDAGDAFDGFDFGDDPSDKFFTSHNGMQFSTWDNDNDKFEGNCAEQDGSGWWMNKCHAGHLNGVYYQGGTYSKASTPNGYDNGIIWATWKTRWYSMKKTTMKIIPFNRLTIGEGQQHHLGGAKQAGDV
modifications: plasma-purified hexamer (AαBβγ)2, disulfide-linked, N-glycosylated, fibrinopeptides A and B retained. Predominant plasma forms assumed: 610-residue Aα and 411-residue γA (the P02679 canonical …)
For B1, the Kd in experiment [1] was determined as 5.3 nM; in experiment [2], 0.09 nM; in experiment [3], 9.9 nM; in experiment [4], 2.4 nM.

B2: GST-Coa-C (C-terminal half of Coa) (domain or fragment)
chain: ETETKSPVVKEEKKVEEPQAPKVDNQQEVKTTAGKAEETTQPVAQPLVKIPQGTITGEIVKGPEYPTMENKTVQGEIVQGPDFLTMEQSGPSLSNNYTNPPLTNPILEGLEGSSSKLEIKPQGTESTLKGTQGESSDIEVKPQATETTEASQYGPRPQFNKTPKYVKYRDAGTGIREYNDGTFGYEARPRFNKPSETNAYNVTTHANGQVSYGARPTYKKPSETNAYNVTTHANGQVSYGARPTQNKPSKTNAYNVTTHGNGQVSYGARPTQNKPSKTNAYNVTTHANGQVSYGARPTYKKPSKTNAYNVTTHADGTATYGPRVTK
modifications: plasma-purified hexamer (AαBβγ)2, disulfide-linked, N-glycosylated, fibrinopeptides A and B retained. Predominant plasma forms assumed: 610-residue Aα and 411-residue γA (the P02679 canonical …)
For the molecule B2, in the experiment with Human fibrinogen, the Kd was 0.46 nM.

B3: GST-Coa-N (N-terminal half of Coa) (domain or fragment)
chain: IVTKDYSGKSQVNAGSKNGTLIDSRYLNSALYYLEDYIIYAIGLTNKYEYGDNIYKEAKDRLLEKVLREDQYLLERKKSQYEDYKQWYANYKKENPRTDLKMANFHKYNLEELSMKEYNELQDALKRALDDFHREVKDIKDKNSDLKTFNAAEEDKATKEVYDLVSEIDTLVVSYYGDKDYGEHAKELRAKLDLILGDTDNPHKITNERIKKEMIDDLNSIIDDFFMETKQNRPKSITKYNPTTHNYKTNSDNKPNFDKLVEETKKAVKEADDSWKKKTVKKYG
modifications: plasma-purified hexamer (AαBβγ)2, disulfide-linked, N-glycosylated, fibrinopeptides A and B retained. Predominant plasma forms assumed: 610-residue Aα and 411-residue γA (the P02679 canonical …)
With B3, the Kd with Human fibrinogen came to 20 nM.
